From paper PMC2740933 come the findings set out here.

This series concerns the target Moloney murine leukemia virus reverse transcriptase N-terminal fragment (MMLV RT) (Moloney murine leukemia virus, UniProt P03355 683-937). The series can be described thus: X-ray crystallography.

Chain of Moloney murine leukemia virus reverse transcriptase N-terminal fragment (MMLV RT) (P03355 683-937): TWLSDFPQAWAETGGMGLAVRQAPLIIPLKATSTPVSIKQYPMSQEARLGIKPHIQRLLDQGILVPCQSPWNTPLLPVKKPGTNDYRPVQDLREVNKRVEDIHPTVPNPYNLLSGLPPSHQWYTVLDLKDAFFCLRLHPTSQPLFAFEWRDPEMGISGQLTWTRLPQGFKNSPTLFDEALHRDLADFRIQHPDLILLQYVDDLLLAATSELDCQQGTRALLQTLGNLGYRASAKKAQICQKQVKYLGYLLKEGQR

B1: 16-mer AATT duplex (dsDNA)
DNA 1: CTTAATTCGAATTAAG
DNA 2: CTTAATTCGAATTAAG
Turning to B1, the binding result is on record as “binds”.
